The labels stand for the following.
B1: Phage-3821 (peptide)
peptide: PQIWCVPTWMCAAS
modifications: cysteine pairing not given here; also: displayed on phage as fusion to pIII, junction not given here
B2: Phage-3824 (peptide)
peptide: EAPYCRPSWMCAGF
modifications: cysteine pairing not given here; also: displayed on phage as fusion to pIII, junction not given here
B3: Phage-3823 (peptide)
peptide: QVKYCEPQWMCAGL
modifications: cysteine pairing not given here; also: displayed on phage as fusion to pIII, junction not given here

Where no end group is shown, it is not given here.

The first experiment addresses T1, PSMA Fab (006 PSMA Fab).
T1 construct: also called Anti-PSMA Fab
Put plainly: clonal phage ELISA on biotinylated PSMA Fab captured on neutravidin plates, anti-M13-HRP detection. (ELISA stands for enzyme-linked immunosorbent assay.)
Experimental: (§1) Clonal phage were harvested as crude supernatants and screened via standard ELISAs. […] Prior to the addition of clonal phage. wells were incubated with blocking buffer and PSMA antigen or blocking buffer alone. Without washing or aspirating, clonal phage supernatants were then added to the wells and incubated for a short time. Wells were then washed followed by detection of bound phage using a horse radish conjugated anti-M13 antibody.
For the molecule QEPVCRPAWMCSGF [Phage-3822], the “Phage binding ELISA signal, Anti-PSMA Fab” value came to 1.26.

Consider B1, for which the “Phage binding ELISA signal, Anti-PSMA Fab” value turned out to be 1.26.

On to VDRMCVPPWMCDVL [Phage-3827], for which the “Phage binding ELISA signal, Anti-PSMA Fab” value was 1.24.

For ATVVCSPPWMCTGF [Phage-3817], the “Phage binding ELISA signal, Anti-PSMA Fab” value worked out at 1.27.

For the molecule B2, the “Phage binding ELISA signal, Anti-PSMA Fab” value was found to be 1.25.

As to PGMVCKPSWMCSHL [Phage-3825], the “Phage binding ELISA signal, Anti-PSMA Fab” value turned out to be 1.25.

With ENAKCSPAWMCVGF [Phage-3818], the “Phage binding ELISA signal, Anti-PSMA Fab” value was 1.27.

VHIMCVPPWMCERF [Phage-3819]: the “Phage binding ELISA signal, Anti-PSMA Fab” value came out at 1.27.

For LLERCVPSWMCLGF [Phage-3820], the “Phage binding ELISA signal, Anti-PSMA Fab” value is 1.26.

With VQHWCVPAWMCYGL [Phage-3826], the “Phage binding ELISA signal, Anti-PSMA Fab” value was 1.24.

For the molecule LDLSCVPAWMCTGF [Phage-3816], the “Phage binding ELISA signal, Anti-PSMA Fab” value is 1.28.

Take B3: the “Phage binding ELISA signal, Anti-PSMA Fab” value was 1.25.

The next experiment deals with T2, PSMA Fab (006 PSMA Fab) (biotinylated (site not stated)).
T2 construct: also called Anti-PSMA Fab
Put plainly: clonal phage ELISA on plate-captured biotinylated PSMA Fab, blocking buffer alone, anti-M13 HRP detection.
As for PYSICKPDWMCTGL [Phage-3840], the “Phage binding ELISA signal, Anti-PSMA Fab” value turned out to be 1.22.

SDYMCRPSWMCEGL [Phage-3838]: the “Phage binding ELISA signal, Anti-PSMA Fab” value was determined as 1.23.

Turning to NYNACVPIWMCEGF [Phage-3839], the “Phage binding ELISA signal, Anti-PSMA Fab” value worked out at 1.22.

In the case of IDRHCIPAWMCEQF [Phage-3828], the “Phage binding ELISA signal, Anti-PSMA Fab” value was 1.24.

Turning to FWQRCVPTWMCEGF [Phage-3835], the “Phage binding ELISA signal, Anti-PSMA Fab” value is 1.23.

Turning to PEIRCAPLWMCVGF [Phage-3829], the “Phage binding ELISA signal, Anti-PSMA Fab” value was determined as 1.24.

With VDRVCIPTWMCEGI [Phage-3834], the “Phage binding ELISA signal, Anti-PSMA Fab” value was 1.23.

In the case of DPVWCIPQWMCEGF [Phage-3837], the “Phage binding ELISA signal, Anti-PSMA Fab” value worked out at 1.23.

Turning to TSVLCQPLWMCSGF [Phage-3832], the “Phage binding ELISA signal, Anti-PSMA Fab” value came out at 1.24.

In the case of SEMRCSPPWMCYGF [Phage-3841], the “Phage binding ELISA signal, Anti-PSMA Fab” value worked out at 1.22.

Turning to VGIRCEPAWMCEGF [Phage-3833], the “Phage binding ELISA signal, Anti-PSMA Fab” value was determined as 1.24.

As to GMKTCVPAWMCVGF [Phage-3831], the “Phage binding ELISA signal, Anti-PSMA Fab” value worked out at 1.24.

For the molecule VLHKCLPTWMCNGF [Phage-3836], the “Phage binding ELISA signal, Anti-PSMA Fab” value was 1.23.

For PPRACVPSWMCTGF [Phage-3830], the “Phage binding ELISA signal, Anti-PSMA Fab” value amounted to 1.24.

For a further experiment, the target named is T3, PSMA Fab (biotinylated (site not stated)).
T3 construct: Biotinylated PSMA Fab captured on neutravidin coated plates in the phage ELISA; also called Anti-PSMA Fab; 006 PSMA Fab
Put plainly: phage ELISA; biotinylated PSMA Fab on neutravidin plate, clonal phage supernatant, anti-M13 HRP detection.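 Further: wells preincubated with PSMA antigen in blocking buffer or with blocking buffer only before clonal phage were added for a short incubation, then bound phage detected.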
Consider WQAWCEPPWMCLGF [Phage-3851], for which the “Phage binding ELISA signal, Anti-PSMA Fab” value came out at 1.2.

With LYEMCKPLWMCAGF [Phage-3842], the “Phage binding ELISA signal, Anti-PSMA Fab” value amounted to 1.22.

Take EPKECVPPWMCIGM [Phage-3850]: the “Phage binding ELISA signal, Anti-PSMA Fab” value stood at 1.21.

As for VSKMCSPVWMCEGF [Phage-3854], the “Phage binding ELISA signal, Anti-PSMA Fab” value was determined as 1.19.

For YNQLCIPNWMCTGF [Phage-3846], the “Phage binding ELISA signal, Anti-PSMA Fab” value turned out to be 1.21.

As for DQRMCEPSWMCLGL [Phage-3852], the “Phage binding ELISA signal, Anti-PSMA Fab” value was 1.19.

Regarding PFLACIPQWMCEVV [Phage-3843], the “Phage binding ELISA signal, Anti-PSMA Fab” value was 1.22.

Turning to VPRLCMPPWMCVGF [Phage-3848], the “Phage binding ELISA signal, Anti-PSMA Fab” value is 1.21.

ELRLCVPHWMCDGF [Phage-3847]: the “Phage binding ELISA signal, Anti-PSMA Fab” value is 1.21.

As for SGLSCVPFWMCTGF [Phage-3845], the “Phage binding ELISA signal, Anti-PSMA Fab” value came to 1.21.

Take WDIRCSPEWMCIGL [Phage-3849]: the “Phage binding ELISA signal, Anti-PSMA Fab” value is 1.21.

For the molecule SDMVCKPPWMCYGF [Phage-3844], the “Phage binding ELISA signal, Anti-PSMA Fab” value is 1.22.

Turning to VVHLCTPNWMCNGF [Phage-3853], the “Phage binding ELISA signal, Anti-PSMA Fab” value worked out at 1.19.

For the next experiment, the target named is T3, PSMA Fab. Description: phage ELISA; biotinylated PSMA Fab on neutravidin plate pre-incubated with PSMA antigen as competitor, anti-M13 HRP detection.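 Further: crude clonal phage supernatants tested, compared against control wells pre-incubated with blocking buffer only, without PSMA antigen.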
Experimental: as §1
As for WQAWCEPPWMCLGF [Phage-3851], the “Phage binding ELISA signal, Anti-PSMA Fab in presence of PSMA” value (from here on “Phage binding ELISA signal … of PSMA”) was 0.0962.

As to LYEMCKPLWMCAGF [Phage-3842], the “Phage binding ELISA signal … of PSMA” value stood at 0.0737.

Regarding EPKECVPPWMCIGM [Phage-3850], the “Phage binding ELISA signal … of PSMA” value stood at 0.079.

In the case of VSKMCSPVWMCEGF [Phage-3854], the “Phage binding ELISA signal … of PSMA” value was found to be 0.0928.

As to YNQLCIPNWMCTGF [Phage-3846], the “Phage binding ELISA signal … of PSMA” value came to 0.0729.

In the case of DQRMCEPSWMCLGL [Phage-3852], the “Phage binding ELISA signal … of PSMA” value was determined as 0.0704.

PFLACIPQWMCEVV [Phage-3843]: the “Phage binding ELISA signal … of PSMA” value was found to be 0.247.

As for VPRLCMPPWMCVGF [Phage-3848], the “Phage binding ELISA signal … of PSMA” value was found to be 0.0968.

On to ELRLCVPHWMCDGF [Phage-3847], for which the “Phage binding ELISA signal … of PSMA” value came out at 0.0777.

With SGLSCVPFWMCTGF [Phage-3845], the “Phage binding ELISA signal … of PSMA” value is 0.0662.

For WDIRCSPEWMCIGL [Phage-3849], the “Phage binding ELISA signal … of PSMA” value was 0.0603.

In the case of SDMVCKPPWMCYGF [Phage-3844], the “Phage binding ELISA signal … of PSMA” value came out at 0.0897.

Consider VVHLCTPNWMCNGF [Phage-3853], for which the “Phage binding ELISA signal … of PSMA” value was 0.0576.

In a further experiment the target is T2, PSMA Fab (006 PSMA Fab). Description: clonal phage ELISA on plate-captured biotinylated PSMA Fab pre-incubated with PSMA antigen as competitor, anti-M13 HRP detection.
Experimental: as §1
As to PYSICKPDWMCTGL [Phage-3840], the “Phage binding ELISA signal … of PSMA” value came to 0.0653.

Regarding SDYMCRPSWMCEGL [Phage-3838], the “Phage binding ELISA signal … of PSMA” value was 0.0632.

For the molecule NYNACVPIWMCEGF [Phage-3839], the “Phage binding ELISA signal … of PSMA” value is 0.104.

As for IDRHCIPAWMCEQF [Phage-3828], the “Phage binding ELISA signal … of PSMA” value is 0.0571.

For FWQRCVPTWMCEGF [Phage-3835], the “Phage binding ELISA signal … of PSMA” value came out at 0.148.

In the case of PEIRCAPLWMCVGF [Phage-3829], the “Phage binding ELISA signal … of PSMA” value was 0.0725.

Turning to VDRVCIPTWMCEGI [Phage-3834], the “Phage binding ELISA signal … of PSMA” value turned out to be 0.0575.

In the case of DPVWCIPQWMCEGF [Phage-3837], the “Phage binding ELISA signal … of PSMA” value turned out to be 0.0652.

For TSVLCQPLWMCSGF [Phage-3832], the “Phage binding ELISA signal … of PSMA” value was 0.0785.

For SEMRCSPPWMCYGF [Phage-3841], the “Phage binding ELISA signal … of PSMA” value was 0.0822.

On to VGIRCEPAWMCEGF [Phage-3833], for which the “Phage binding ELISA signal … of PSMA” value came out at 0.0645.

As for GMKTCVPAWMCVGF [Phage-3831], the “Phage binding ELISA signal … of PSMA” value is 0.08.

In the case of VLHKCLPTWMCNGF [Phage-3836], the “Phage binding ELISA signal … of PSMA” value came out at 0.0967.

In the case of PPRACVPSWMCTGF [Phage-3830], the “Phage binding ELISA signal … of PSMA” value was found to be 0.0854.

Another experiment has as its target T1, PSMA Fab (006 PSMA Fab). Description: clonal phage ELISA on captured PSMA Fab pre-incubated with PSMA antigen as competitor, anti-M13-HRP detection.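 Further: wells blocked with buffer plus PSMA antigen before phage addition, with blocking buffer alone as the no-competitor control, bound phage detected after washing.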
Experimental: as §1
With QEPVCRPAWMCSGF [Phage-3822], the “Phage binding ELISA signal, Anti-PSMA Fab with PSMA antigen” value was 0.0764.

As for B1, the “Phage binding ELISA signal, Anti-PSMA Fab with PSMA antigen” value is 0.0743.

In the case of VDRMCVPPWMCDVL [Phage-3827], the “Phage binding ELISA signal, Anti-PSMA Fab with PSMA antigen” value is 0.0859.

For ATVVCSPPWMCTGF [Phage-3817], the “Phage binding ELISA signal, Anti-PSMA Fab with PSMA antigen” value turned out to be 0.0662.

For B2, the “Phage binding ELISA signal, Anti-PSMA Fab with PSMA antigen” value worked out at 0.0837.

Turning to PGMVCKPSWMCSHL [Phage-3825], the “Phage binding ELISA signal, Anti-PSMA Fab with PSMA antigen” value is 0.107.

In the case of ENAKCSPAWMCVGF [Phage-3818], the “Phage binding ELISA signal, Anti-PSMA Fab with PSMA antigen” value came out at 0.0752.

Consider VHIMCVPPWMCERF [Phage-3819], for which the “Phage binding ELISA signal, Anti-PSMA Fab with PSMA antigen” value was found to be 0.0664.

As to LLERCVPSWMCLGF [Phage-3820], the “Phage binding ELISA signal, Anti-PSMA Fab with PSMA antigen” value was 0.102.

On to VQHWCVPAWMCYGL [Phage-3826], for which the “Phage binding ELISA signal, Anti-PSMA Fab with PSMA antigen” value was 0.107.

As to LDLSCVPAWMCTGF [Phage-3816], the “Phage binding ELISA signal, Anti-PSMA Fab with PSMA antigen” value amounted to 0.0963.

With B3, the “Phage binding ELISA signal, Anti-PSMA Fab with PSMA antigen” value is 0.0788.

The values are drawn from patent US20260242478A1 (published 2026).
